In EP4470554A1, “USE OF KALLIKREIN I OR DERIVATIVE THEREOF IN TREATMENT OF VCI, PSCI OR CSVD” (Zonhon Biopharma Institute, Inc., priority 2022, dated 2023) one finds Bradykinin production data, which are given here for one substance.

The target in this experiment is T1, LMWK (Homo sapiens, UniProt P01042).
T1 sequence (P01042 19-427 isoform P01042-2 limits assumed): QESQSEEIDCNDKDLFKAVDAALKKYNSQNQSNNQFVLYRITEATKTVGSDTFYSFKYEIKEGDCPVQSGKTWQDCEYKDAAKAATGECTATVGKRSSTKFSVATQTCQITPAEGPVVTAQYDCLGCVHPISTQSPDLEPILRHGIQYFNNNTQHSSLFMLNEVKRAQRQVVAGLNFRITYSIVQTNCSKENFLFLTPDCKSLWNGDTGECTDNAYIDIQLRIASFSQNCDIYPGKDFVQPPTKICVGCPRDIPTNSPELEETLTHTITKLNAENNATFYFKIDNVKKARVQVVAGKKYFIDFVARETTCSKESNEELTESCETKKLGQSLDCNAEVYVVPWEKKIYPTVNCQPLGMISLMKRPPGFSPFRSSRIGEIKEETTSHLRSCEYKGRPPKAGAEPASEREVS
The experiment is described as follows: In vitro activity evaluation based on natural substrates (enzymatic reaction with LMWK, bradykinin quantified by UPLC). The conditions noted are these: 37°C, 15min. The experiment is classed as biochemical. On the procedure: This example compared the enzymatic reaction to produce the effector molecule bradykinin at different ratios of substrate (LMWK) to enzyme (KLK1 or its PEG modified KLK1). The produced effector molecules were separated by reverse phase chromatography, the peak area of the product is calculated, and the curve of bradykinin production with different ratios of substrate to enzyme was drawn. Compare the amount of effector molecules produced by different test samples under the same reaction methods. Through this in vitro method simulating the in vivo effect, the in vivo effects of different tested samples were indirectly compared.
Kb was KLK1 extracted from porcine pancreas. PEG-Kb was PEG10K-modified Kb. PEG10K-hKLK1X1 and PEG-Kb can be prepared according to the conventional method of polyethylene glycol modified drugs.
The samples were mixed according to the following table (in PEG modified samples, the molar mass of the modified active substance was converted). The mixed samples were placed in a 37°C thermostat, incubated for 15min, accurately timed, and the reaction was terminated by adding 50% acetic acid solution according to the volume ratio of 10:1.
After the termination of the reaction, the sample was placed in a desktop centrifuge, centrifuged at 12000rpm for 5min, and the supernatant was taken. Detect with Waters ACQUITY UPLC H-Class, the mobile phase A was 0.1% TFA-H2O, the mobile phase B was 0.1% TFA-ACN, the detection wavelength was 214nm, the column temperature was 30°C, the sample loading volume was 10µl, the flow rate was 0.2ml/min, the running time was 35min, and the running gradient was as follows: Table 3
According to the UPLC chromatograph results of the enzymatic reaction mixture, the chromatographic peak with retention time of 13±0.5min(the peak position of bradykinin) was integrated and summed, and compared with the peak area of per unit mass bradykinin (1mg/ml, loading volume 10µl) to calculate the concentration of bradykinin generated by the enzymatic reaction. The amount of bradykinin produced was calculated according to the total reaction system in Table 2, and finally converted to the amount of bradykinin(µg/mg) produced per milligram of enzyme at each molar ratio.

Consider “PEG-Kb: PEG10K-modified Kb [reference compound]”, for which the Bradykinin production reads like this: (Molar ratio of substrate to enzyme 1: 1) 11.28 µg/mg (enzyme); (Molar ratio of substrate to enzyme 5: 1) 44.63 µg/mg (enzyme); (Molar ratio of substrate to enzyme 10: 1) 79.99 µg/mg (enzyme); (Molar ratio of substrate to enzyme 15: 1) 103.85 µg/mg (enzyme); (Molar ratio of substrate to enzyme 20: 1) 119.89 µg/mg (enzyme).
